Test results reported in patent US20220412989A1, “COMPOSITIONS AND METHODS FOR DETECTING CELLS UNDERGOING FERROPTOSIS USING AN ANTIBODY” (THE TRUSTEES OF COLUMBIA UNIVERSITY IN THE CITY OF NEW YORK, priority 2020, published 2022).

Experiments:
mouse TfR1 protein = target: T1, mouse TfR1 protein (Mus musculus, UniProt Q62351); experiment: Staining of mouse glioblastoma paraffin-embedded tissue
T1 construct: from tissue; host or cells: murine glioma grown from murine glioma cells injected into c57/B6 mouse brain
T1 sequence (Q62351 whole entry): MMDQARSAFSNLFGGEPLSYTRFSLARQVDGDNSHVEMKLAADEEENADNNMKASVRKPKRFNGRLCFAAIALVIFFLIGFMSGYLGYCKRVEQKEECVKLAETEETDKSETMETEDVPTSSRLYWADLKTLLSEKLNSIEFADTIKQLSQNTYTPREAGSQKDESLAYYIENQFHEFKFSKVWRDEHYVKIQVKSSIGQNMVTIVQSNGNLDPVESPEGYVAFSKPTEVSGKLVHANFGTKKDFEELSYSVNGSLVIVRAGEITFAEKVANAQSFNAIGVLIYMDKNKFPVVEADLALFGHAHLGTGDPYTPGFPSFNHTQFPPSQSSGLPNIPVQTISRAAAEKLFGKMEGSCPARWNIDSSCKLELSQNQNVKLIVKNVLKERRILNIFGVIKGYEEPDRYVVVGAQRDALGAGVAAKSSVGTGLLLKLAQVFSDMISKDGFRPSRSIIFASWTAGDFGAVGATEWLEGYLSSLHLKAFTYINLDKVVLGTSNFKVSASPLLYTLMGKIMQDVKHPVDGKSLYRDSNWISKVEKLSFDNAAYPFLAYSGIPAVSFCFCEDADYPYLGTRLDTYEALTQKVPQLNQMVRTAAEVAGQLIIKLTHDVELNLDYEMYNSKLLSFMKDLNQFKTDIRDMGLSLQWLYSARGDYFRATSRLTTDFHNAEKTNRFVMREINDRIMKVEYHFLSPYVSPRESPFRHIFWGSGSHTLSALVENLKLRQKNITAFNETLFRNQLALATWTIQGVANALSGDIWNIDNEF
Experimental: All procedures were performed according to the Columbia University Medical Center Institutional Animal Care and Use Committee. Murine glioma cell lines were created from tumor bearing mice. These tumors were generated by injection of a PDGF-IRES-Cre retrovirus into the subcortical white matter of mice with floxed PTEN and/or p53 (Sonabend et al., 2013). After mice reached end stage, the tumors were dissociated and primary cell cultures were created. These cells harbored the specific mutations of the original tumors, and could be re-injected to form gliomas in c57/B6 mice with high fidelity. Briefly, mice between the ages of 6-8 weeks received 50,000 murine glioma cells through stereotactic injection after being anesthetized with a ketamine/xylazine cocktail (87.5 mg/12.5 mg w/w). After cessation of toe-pinch reflex, the scalp was shaved and cleaned with serial use of betadine and 70% ethanol swabs. An incision was made and the skull was exposed. A burr hole was created, 2 mm anterior, 2 mm lateral and 2 mm deep to the right of the bregma. The cells were injected into the subcortical white matter over a period of 3 minutes (0.333 μL/min). Once the injection ceased, the needle was left in place for 1 minute before being slowly withdrawn. After tumor developed, brains were harvested and fixed in 4% paraformaldehyde and embedded in paraffin. 5 micron sections were made for staining.

[1] = target: T2, transferrin receptor protein 1 (Homo sapiens, UniProt P02786); experiment: siRNA knockdown of TfR1 followed by immunofluorescence; assay type: cell-based; conditions: HT-1080 cells, siTfR1 vs siNT
T2 construct: First, we incubated 3F3-FMA with a cell lysate overnight; endogenous in cells; host or cells: HT-1080 (ATCC CRL-7951)
T2 sequence (P02786 whole entry): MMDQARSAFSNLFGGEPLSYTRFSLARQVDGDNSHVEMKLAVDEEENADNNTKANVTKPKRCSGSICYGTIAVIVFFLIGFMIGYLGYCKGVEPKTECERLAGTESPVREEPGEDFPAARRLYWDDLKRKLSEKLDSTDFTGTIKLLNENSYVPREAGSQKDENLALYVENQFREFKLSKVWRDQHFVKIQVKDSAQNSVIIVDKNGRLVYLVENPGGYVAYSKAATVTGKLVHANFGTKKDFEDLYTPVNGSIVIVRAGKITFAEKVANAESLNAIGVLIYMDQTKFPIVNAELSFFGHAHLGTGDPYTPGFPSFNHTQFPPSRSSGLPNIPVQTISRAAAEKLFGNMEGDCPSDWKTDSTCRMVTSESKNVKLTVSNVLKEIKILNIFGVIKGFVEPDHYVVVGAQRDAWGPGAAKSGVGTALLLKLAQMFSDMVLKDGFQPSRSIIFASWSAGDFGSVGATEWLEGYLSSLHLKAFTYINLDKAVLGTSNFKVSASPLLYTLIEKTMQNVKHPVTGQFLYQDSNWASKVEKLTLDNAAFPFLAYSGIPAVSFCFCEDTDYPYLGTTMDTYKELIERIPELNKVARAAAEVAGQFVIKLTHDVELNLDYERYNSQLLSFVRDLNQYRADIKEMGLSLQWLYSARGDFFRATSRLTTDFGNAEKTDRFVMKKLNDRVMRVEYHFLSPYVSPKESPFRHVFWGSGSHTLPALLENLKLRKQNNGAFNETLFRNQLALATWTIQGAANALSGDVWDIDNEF
Experimental: 10 μM of siRNAs were combined with 250 μl of Opti-MEM serum-free media (Life Technologies 31985-070) in one tube. 6 μl of Lipofectamine RNAiMAX (Thermo Fisher Scientific 13778150) was combined with 250 μl of Opti-Mem media in another tube. They were equilibrated at r.t. for 5 min. Then two tubes were combined, transferred into 6-well plate and incubated at 37° C. for 20 min. 0.25 million HT-1080 cells were then added to 6-well plate and incubated for 48 h. Cells were reseeded in regular media for additional 24 h. Regular IF procedure was then conducted.

[2] = test system: A-673, SK-BR-3, Huh-7 and SK-LMS-1 cells; experiment: Immunofluorescence staining in other cancer cell lines; assay type: cell-based, human; conditions: 1 μM RSL3, 4 h
Experimental: HT-1080 (ATCC Cat #CRL-7951, RRID:CVCL_0317), A-673, SK-BR-3, SK-LMS-1 and Huh-7 cells were treated with 1 μM RSL3 for 4 h, 15 μM erastin for 8 h, 10 μM IKE for 8 h, 15 μM FINO2 for 8 h, 10 μM FIN56 for 8 h, 100 μM tBuOOH for 8 h, 1 μM staurosporine (STS) for 6 h, 2 μM camptothecin (CPT) for 24 h, 1 μM RSL3+5 μM Fer-1 for 4 h and 10 μM IKE+5 μM Fer-1 for 8 h on poly-lysine-coated cover slips (Sigma Aldrich P4832) in 24-well plate. Media were taken out and the cells were gently washed with PBS^++ (PBS with 1 mM CaCl2) and 0.5 mM MgCl2) twice. The cells were fixed and permeabilized by adding 200 μL/well of 4% paraformaldehyde (PFA) in PBS with 0.1% Triton X-100 (PBT), and incubated at room temperature for 18 min. The cells were then washed with PBT three times. Then the cells were blocked with 5% goat serum (ThermoFisher 50197Z) in PBT for 1 h at room temperature. […] When applicable, line-scan analysis was performed on representative confocal microscopy images using Zeiss LSM software to qualitatively visualize fluorescence overlap.
The quantification of the intensity of antibodies was analyzed using CellProfiler 3.1.8 (Carpenter et al., 2006) (CellProfiler Image Analysis Software, RRID:SCR_007358). […] Then mean intensities and size areas of nuclei, cytoplasm and plasma membranes were then measured and reported. […]

B1: 3F3-FMA: murine monoclonal IgG1 raised against ferroptotic membrane fractions; antigen is human transferrin receptor protein 1 (TfR1) (antibody, V domains shown)
VH: EVLLQQSGTELVRPGALVKLSCKASGFNIQDLYIHWVKQRPEQGLEWIGWIDPETDNTIYDPKFQGKASITADTSSNTAYLQLSSLTSEDTAMYYCSTGLLQWYFDVWGAGTAVTVSS
VL: DIVMTQSPSSLAMSIGQKVTMRCKSSQSLLNSYNQKNCLAWYQQKPGQSPKLLLYFVSTRESGVPDRFIGSGSGTDFTLTISSVQAEDLADYFCQQHYSTPLTFGAGTKLELK
Question: Which results are given for B1?
Answer: recognition of TfR1 in mouse GBM tumor samples (mouse TfR1 protein): able to recognize mouse TfR1 protein; staining in siTfR1-transfected cells [1]: wasn't any detectable staining; staining upon ferroptosis induction [2]: staining concentrated at the cell boundaries and became brighter
